Three molecules from patent US7943340B2, “Fungal dipeptidyl peptidase IV (DPPIV) enzyme for reagent use” (priority 2003, dated 2011) can be followed below.

One test has as its system gliadin 33 mer. Put plainly: Digestion of gliadin 33 mer (RP-HPLC, ESI-MS). Type of test: biochemical, wheat. As to conditions: 37° C., 1 mM CoCl2, pH7.2.
Test [1] can be described thus: Aminopeptidase activity assay with fluorogenic aminoacyl-AMC substrates. Type of test: biochemical. As to conditions: for preference for aminoacyl-AMC substrates compared to Leu-AMC: Leu-AMC used as a reference; for hydrolytic activity toward Ala-AMC in comparison (%) to Leu-MCA: substrate Ala-AMC; for hydrolytic activity toward Ala-AMC in comparison (%) to Leu-MCA / hydrolytic activity toward Arg-AMC in comparison (%) to Leu-MCA / hydrolytic activity toward Asn-AMC in comparison (%) to Leu-MCA / hydrolytic activity toward Asp-AMC in comparison (%) to Leu-MCA / hydrolytic activity toward Cys-AMC in comparison (%) to Leu-MCA / hydrolytic activity toward Gln-AMC in comparison (%) to Leu-MCA / hydrolytic activity toward Glu-AMC in comparison (%) to Leu-MCA / hydrolytic activity toward Gly-AMC in comparison (%) to Leu-MCA / hydrolytic activity toward Gly-Pro-AMC in comparison (%) to Leu-MCA / hydrolytic activity toward His-AMC in comparison (%) to Leu-MCA / hydrolytic activity toward Hyp-AMC in comparison (%) to Leu-MCA / hydrolytic activity toward Ile-AMC in comparison (%) to Leu-MCA / hydrolytic activity toward Leu-AMC in comparison (%) to Leu-MCA used as a standard / hydrolytic activity toward Lys-AMC in comparison (%) to Leu-MCA / hydrolytic activity toward Met-AMC in comparison (%) to Leu-MCA / hydrolytic activity toward Phe-AMC in comparison (%) to Leu-MCA / hydrolytic activity toward Pro-AMC in comparison (%) to Leu-MCA / hydrolytic activity toward Pyr-AMC in comparison (%) to Leu-MCA / hydrolytic activity toward Ser-AMC in comparison (%) to Leu-MCA / hydrolytic activity toward Thr-AMC in comparison (%) to Leu-MCA / hydrolytic activity toward Val-AMC in comparison (%) to Leu-MCA: 5 mM, 37° C., 60 min; for hydrolytic activity toward Arg-AMC in comparison (%) to Leu-MCA: substrate Arg-AMC; for hydrolytic activity toward Asn-AMC in comparison (%) to Leu-MCA: substrate Asn-AMC; for hydrolytic activity toward Asp-AMC in comparison (%) to Leu-MCA: substrate Asp-AMC; for hydrolytic activity toward Cys-AMC in comparison (%) to Leu-MCA: substrate Cys-AMC; for hydrolytic activity toward Gln-AMC in comparison (%) to Leu-MCA: substrate Gln-AMC; for hydrolytic activity toward Glu-AMC in comparison (%) to Leu-MCA: substrate Glu-AMC; for hydrolytic activity toward Gly-AMC in comparison (%) to Leu-MCA: substrate Gly-AMC; for hydrolytic activity toward Gly-Pro-AMC in comparison (%) to Leu-MCA: substrate Gly-Pro-AMC; for hydrolytic activity toward His-AMC in comparison (%) to Leu-MCA: substrate His-AMC; for hydrolytic activity toward Hyp-AMC in comparison (%) to Leu-MCA: substrate Hyp-AMC; for hydrolytic activity toward Ile-AMC in comparison (%) to Leu-MCA: substrate Ile-AMC; for hydrolytic activity toward Leu-AMC in comparison (%) to Leu-MCA used as a standard: substrate Leu-AMC (standard); for hydrolytic activity toward Lys-AMC in comparison (%) to Leu-MCA: substrate Lys-AMC; for hydrolytic activity toward Met-AMC in comparison (%) to Leu-MCA: substrate Met-AMC; for hydrolytic activity toward Phe-AMC in comparison (%) to Leu-MCA: substrate Phe-AMC; for hydrolytic activity toward Pro-AMC in comparison (%) to Leu-MCA: substrate Pro-AMC; for hydrolytic activity toward Pyr-AMC in comparison (%) to Leu-MCA: substrate Pyr-AMC; for hydrolytic activity toward Ser-AMC in comparison (%) to Leu-MCA: substrate Ser-AMC; for hydrolytic activity toward Thr-AMC in comparison (%) to Leu-MCA: substrate Thr-AMC; for hydrolytic activity toward Val-AMC in comparison (%) to Leu-MCA: substrate Val-AMC. The protocol: (§1) Aminopeptidase activity was determined using different fluorogenic aminoacyl-4-methylcoumaryl-7-amide derivatives of peptides and the internally quenched fluorogenic substrate Lys(Abz)-Pro-Pro-pNA for specific determination of aminopeptidase P activity. Stockel et al, Adv Exp. Med. Biol. 421:31-35 (1997). All substrates were from Bachem (Bubendorf, Switzerland). Substrate stock solutions were prepared at 0.1 M according to the recommendations of the manufacturer and stored at −20° C. The reaction mixture contained a concentration of 5 mM substrate and enzyme preparation (between 56 and 2,662 ng per assay depending on the cleavage activity of each enzyme for the substrates) in 25 μl of 50 mM Tris-HCl buffer adjusted at the optimal pH for each LAP (between 7 and 8). After incubation at 37° C. for 60 min, the reaction was terminated by adding 5 μl of glacial acetic acid and the reaction mixture was diluted with 3.5 ml of water. The released 7-amino-4-methylcoumarin (AMC) was measured using a spectrofluorophotometer (Perkin Elmer LS-5 fluorometer, Zurich, Switzerland) at an excitation wavelength of 370 nm and an emission wavelength of 460 nm. A standard curve made with synthetic AMC was used to assess the released AMC. The released diprolyl-p-nitroanilide was measured at an excitation wavelength of 310 nm and an emission wavelength of 410 nm. The LA activities were expressed in mnoles of released AMC or pNA/min/μg protein.
Table 15 details the hydrolytic activity of different LAPs toward various aminoacyl-MCA comparison (%) to Leu-MCA used as a standard.

Test [2] in a line: Aminopeptidase P activity assay. The test is classed as biochemical. As to conditions: substrate Lys(Abz)-Pro-Pro-pNA, 5 mM, 37° C., 60 min. The protocol:
as §1

“Also recorded” adds a separate entry of the source.

B1: Cytosolic porcine kidney aminopeptidase: cytosolic leucine aminopeptidase from porcine kidney, Sigma (protein, UniProt P28839 1-519, looked up)
Cytosol aminopeptidase: MFLLPLPAAARVAVRQLSVRRFWGPGPDAANMTKGLVLGIYSKEKEDDAPQFTSAGENFDKLVSGKLREILNISGPPLKAGKTRTFYGLHEDFSSVVVVGLGKKGAGVDDQENWHEGKENIRAAVAAGCRQIQDLEIPSVEVDPCGDAQAAAEGAVLGLYEYDELKQKKKVVVSAKLHGSGDQEAWQRGVLFASGQNLARHLMETPANEMTPTRFAEVIEKNLKSASSKTDVHIRPKSWIEEQEMGSFLSVAKGSEEPPVFLEIHYKGSPDASDPPLVFVGKGITFDSGGISIKASANMDLMRADMGGAATICSTIVSAAKLDLPINLVGLAPLCENMPSGKANKPGDVVRAKNGKTIQVDNTDAEGRLILADALCYAHTFNPKVIINAATLTGAMDIALGSGATGVFTNSSWLWNKLFEASIETGDRVWRMPLFEHYTKQIVDCQLADVNNIGKYRSAGACTAAAFLKEFVTHPKWAHLDIAGVMTNKDEVPYLRKGMAGRPTRTLIEFLLRFSQDSA
Turning to B1, the “digestion of the 33 mer” value in the test on gliadin 33 mer is “totally inactive”.

B2: fuLAP2: A. fumigatus leucine aminopeptidase, 498 amino acid residues (SEQ ID NO: 9) (protein, listed as Aspergillus fumigatus)
chain: MKLLYLTSFASLAVANGPGWDWKPRVHPKVLPQMIHLWDLLQGAQQLEDFAYAYPERNRVFGGRAHEDTVNYLYRELKKTGYYDVYKQPQVHQWTRADQALTVDGQSYDATTMTYSPSVNATAPLAVVNNLGCVEADYPADLTGKIALISRGECTFATKSVLSAKAGAAAALVYNNIEGSMAGTLGGATSELGAYAPIAGISLADGQALIQMIQAGTVTANLWIDSQVENRTTYNVIAQTKGGDPNNVVALGGHTDSVEAGPGINDDGSGIISNLVVAKALTRFSVKNAVRFCFWTAEEFGLLGSNYYVNSLNATEQAKIRLYLNFDMIASPNYALMIYDGDGSAFNLTGPAGSAQIERLFEDYYTSIRKPFVPTEFNGRSDYQAFILNGIPAGGLFTGAEAIKTEEQAQLFGGQAGVALDANYHAKGDNMTNLNREAFLINSRATAFAVATYANSLDSIPPRNMTTVVKRSQLEQAMKRTPHTHTGGTGCYKDRVEQ
For the molecule B2, in test [1], the “hydrolysis of Leu-AMC” value is recorded as “efficiently hydrolyzed”, the “preference for aminoacyl-AMC substrates compared to Leu-AMC” value is recorded as “common preference for Leu-AMC as a substrate”, the “hydrolytic activity toward Ala-AMC in comparison (%) to Leu-MCA” value is on record as 11.7% and the “hydrolytic activity toward Arg-AMC in comparison (%) to Leu-MCA” value is reported as 2.3%. Further, in test [1], the “hydrolytic activity toward Asn-AMC in comparison (%) to Leu-MCA” value is on record as 73.5%, the “hydrolytic activity toward Asp-AMC in comparison (%) to Leu-MCA” value turned out to be 0.3%, the “hydrolytic activity toward Cys-AMC in comparison (%) to Leu-MCA” value was 2.1% and the “hydrolytic activity toward Gln-AMC in comparison (%) to Leu-MCA” value is 37.0%. In test [1], the “hydrolytic activity toward Glu-AMC in comparison (%) to Leu-MCA” value came out at 1.1%, the “hydrolytic activity toward Gly-AMC in comparison (%) to Leu-MCA” value was found to be 2.2%, the “hydrolytic activity toward Gly-Pro-AMC in comparison (%) to Leu-MCA” value came to 74.1% and the “hydrolytic activity toward His-AMC in comparison (%) to Leu-MCA” value is 1.9%. Also, in test [1], the “hydrolytic activity toward Hyp-AMC in comparison (%) to Leu-MCA” value is on record as 13.3%, the “hydrolytic activity toward Ile-AMC in comparison (%) to Leu-MCA” value worked out at 1.8%, the “hydrolytic activity toward Leu-AMC in comparison (%) to Leu-MCA used as a standard” value came to 100.0% and the “hydrolytic activity toward Lys-AMC in comparison (%) to Leu-MCA” value came to 2.3%. In addition, in test [1], the “hydrolytic activity toward Met-AMC in comparison (%) to Leu-MCA” value is listed as 89.5%, the “hydrolytic activity toward Phe-AMC in comparison (%) to Leu-MCA” value amounted to 8.9%, the “hydrolytic activity toward Pro-AMC in comparison (%) to Leu-MCA” value was determined as 7.4% and the “hydrolytic activity toward Pyr-AMC in comparison (%) to Leu-MCA” value was found to be 0.0%. In test [1], the “hydrolytic activity toward Ser-AMC in comparison (%) to Leu-MCA” value came to 10.3%, the “hydrolytic activity toward Thr-AMC in comparison (%) to Leu-MCA” value was 0.1% and the “hydrolytic activity toward Val-AMC in comparison (%) to Leu-MCA” value was 0.8%. The “hydrolytic activity toward Lys(Abz) Pro-PropNA in comparison (%) to Leu-MCA” value in test [2] stood at 0.0%.

B3: fuLAP1: A. fumigatus leucine aminopeptidase, 388 amino acid residues (SEQ ID NO: 12) (protein, listed as Aspergillus fumigatus)
chain: MKVLTAIALSAIAFTGAVAAVITQEAFLNNPRIHHDQEKYLIELAPYRTRWVTEEEKWALKLDGVNFIDITEEHNTGFYPTLHSASYVKYPPKMQYAEEVAALNKNLSKENMKANLERFTSFHTRYYKSQTGIRSATWLFDQVQRVVSESGAAEYGATVERFSHPWGQFSIIARIPGRTNKTVVLGAHQDSINLFLPSILAAPGADDDGSGTVTILEALRGLLQSDAIAKGNASNTVEFHWYSAEEGGMLGSQAIFSNYKRNRREIKAMLQQDMTGYVQGALNAGVEEAIGIMVDYVDQGLTQFLKDVVTAYCSVGYLETKCGYACSDHTSASKYGYPAAMATEAEMENTNKKIHTTDDKIKYLSFDHMLEHAKLSLGFAFELAFAPF
On to B3, for which, in test [1], the “hydrolysis of Leu-AMC” value was “efficiently hydrolyzed”; the “preference for aminoacyl-AMC substrates compared to Leu-AMC” value is “appreciated Arg-, Val-, and Phe-AMC; also recorded: common preference for Leu-AMC as a substrate”; the “hydrolytic activity toward Ala-AMC in comparison (%) to Leu-MCA” value was determined as 4.7%; the “hydrolytic activity toward Arg-AMC in comparison (%) to Leu-MCA” value is 53.9%. In addition, in test [1], the “hydrolytic activity toward Asn-AMC in comparison (%) to Leu-MCA” value amounted to 29.4%, the “hydrolytic activity toward Asp-AMC in comparison (%) to Leu-MCA” value amounted to 0.8%, the “hydrolytic activity toward Cys-AMC in comparison (%) to Leu-MCA” value was determined as 5.0% and the “hydrolytic activity toward Gln-AMC in comparison (%) to Leu-MCA” value was 44.9%. Moreover, in test [1], the “hydrolytic activity toward Glu-AMC in comparison (%) to Leu-MCA” value was determined as 0.0%, the “hydrolytic activity toward Gly-AMC in comparison (%) to Leu-MCA” value amounted to 0.8%, the “hydrolytic activity toward Gly-Pro-AMC in comparison (%) to Leu-MCA” value was determined as 5.4% and the “hydrolytic activity toward His-AMC in comparison (%) to Leu-MCA” value came out at 0.8%. In test [1], the “hydrolytic activity toward Hyp-AMC in comparison (%) to Leu-MCA” value stood at 3.9%, the “hydrolytic activity toward Ile-AMC in comparison (%) to Leu-MCA” value amounted to 13.2%, the “hydrolytic activity toward Leu-AMC in comparison (%) to Leu-MCA used as a standard” value is recorded as 100.0% and the “hydrolytic activity toward Lys-AMC in comparison (%) to Leu-MCA” value is on record as 7.7%. In test [1], the “hydrolytic activity toward Met-AMC in comparison (%) to Leu-MCA” value came out at 116.9%, the “hydrolytic activity toward Phe-AMC in comparison (%) to Leu-MCA” value was 163.7%, the “hydrolytic activity toward Pro-AMC in comparison (%) to Leu-MCA” value was 12.0% and the “hydrolytic activity toward Pyr-AMC in comparison (%) to Leu-MCA” value amounted to 0.0%. Further, in test [1], the “hydrolytic activity toward Ser-AMC in comparison (%) to Leu-MCA” value was 10.3%, the “hydrolytic activity toward Thr-AMC in comparison (%) to Leu-MCA” value amounted to 5.1% and the “hydrolytic activity toward Val-AMC in comparison (%) to Leu-MCA” value turned out to be 27.6%. In addition, the “hydrolytic activity toward Lys(Abz) Pro-PropNA in comparison (%) to Leu-MCA” value in test [2] stood at 0.0%.
